Experimental data as given in IntAct's records for PubMed 21645854.

B1: FAS-associated factor 1 (Homo sapiens), Q9UNN5-1 (parent)
chain: MASNMDREMILADFQACTGIENIDEAITLLEQNNWDLVAAINGVIPQENGILQSEYGGETIPGPAFNPASHPASAPTSSSSSAFRPVMPSRQIVERQPRMLDFRVEYRDRNVDVVLEDTCTVGEIKQILENELQIPVSKMLLKGWKTGDVEDSTVLKSLHLPKNNSLYVLTPDLPPPSSSSHAGALQESLNQNFMLIITHREVQREYNLNFSGSSTIQEVKRNVYDLTSIPVRHQLWEGWPTSATDDSMCLAESGLSYPCHRLTVGRRSSPAQTREQSEEQITDVHMVSDSDGDDFEDATEFGVDDGEVFGMASSALRKSPMMPENAENEGDALLQFTAEFSSRYGDCHPVFFIGSLEAAFQEAFYVKARDRKLLAIYLHHDESVLTNVFCSQMLCAESIVSYLSQNFITWAWDLTKDSNRARFLTMCNRHFGSVVAQTIRTQKTDQFPLFLIIMGKRSSNEVLNVIQGNTTVDELMMRLMAAMEIFTAQQQEDIKDEDEREARENVKREQDEAYRLSLEADRAKREAHEREMAEQFRLEQIRKEQEEEREAIRLSLEQALPPEPKEENAEPVSKLRIRTPSGEFLERRFLASNKLQIVFDFVASKGFPWDEYKLLSTFPRRDVTQLDPNKSLLEVKLFPQETLFLEAKE

Variants of: B1
Details: with tera_human VCP

Variant | effect of a mutation on the interaction
R621A | decreasing interaction
P640N | decreasing interaction
R579A | decreasing interaction
P620N | decreasing interaction
F619A | decreasing interaction
